In paper doi:10.1101/2020.12.28.424526 (bioRxiv, 2020):

B1: recombinant miRNasome-1.4 (natural protein, C. elegans, UniProt Q17426 1-577, looked up)
chain: METEFGLTEYASEHTITPVPCLLKEMYSDFIVQEILADHTVLAIPSPDVVLESTGSKKEDIEIEECVAKPDCISEETLAALNDRFSTKGDPVLVKVDDLSKEDRKSIHHFIRERYAGVLITETKEDGILVSHGHTKSSRKRKLWDEKVPKECHFTICKENKETSFACQLIAKFLNVGPNNIRTHGIKDKRAVTSQRVSVTKVHERTILDLNSKLRGIRVFGCEYKDDPVQMGAHWGNRFSIVLRSLPDDSEQLLHQRLETFQNTGFINYFGTQRFGSRSSTTAEIGLAIVKRDWEKAVKMIMTNAMPDHLGYGSVGYAAKCFSQTGDARKAFSKLKGAQAFATVEGNILKCLSKGGTWQNCITEAIPIQSRSLYVHAYQSLIWNKVASRRVKEYGTRVHESDVGANGFSLGEHATHYDIHIPLPGENLPFEGSYGAKWISELLEEDGLTQSSFTALKDRFSLGESSRCLFVEAKELKWKFIRYGNARDLLQDGLQTRAIPEAEQKGPLLALQIQFSLISGSYATVALREVTGSDMGKKAMRDASFKTRGDDEKTEENVLEEKGSDDANELNLVSEDQ
B2: recombinant NOL-58 (natural protein, C. elegans, UniProt O45012 1-487, looked up)
chain: MLVLFEVAAGYAVFKLSNEKKLKNVDNIWEEFSTAEKAQENLQLVSFKKFKTTAGAVEATSEITEGKLSKTLKKLLKSSVDETEKLAVGDAKLGNLIKEKLSLNCVHDSSINELMRGVRAHIEDLLAEHKEEMNAMNLAVAHSLARYKVKFNPEKIDTMIVQAVSLLDDLDKELNNYVMRVREWYGWHFPELGKTIQDHQAYAKIIKAIGMRQNCINTDLSSILPEELEEKVKEDAEISMGTDISDIDLIHIKGLCDQVIELSAYRAQLFDYLKNRMTALAPNLTVLLGELVGARLISHAGSLVSLAKAPASTIQILGAEKALFRALKTKKDTPKYGLIYHAQLITQAPPKVKGKMARKLAAKCSLATRIDALSDESATNEIGIECRAALENVLRTESERGPSKNKSFGSHRHDKYEFKSETYEYDASADTPASRKHKRFDDNEESTNAIKKMKIEEVKEEDEAEPEKKKKKKEKKAKKADTDSDEE
B3: partner of XRN two-1 (PAXT-1) (natural protein, C. elegans (endogenous in worm lysate), UniProt Q21738 1-335, looked up)
chain: MGKLEDVEAEKKLWESDDAWELRKAFMLAHYDDYPKIQLQCLSQLFINVTLLGCEYSQTLMQKIRTMGAGIAANKDRTKTGSYVKASAAKKRQAVKTSDLEGASDESKKVKMEKSPSPVARESFDERLGKLKASLAMTPHHLTGEQMMKTATNSCLMKWHVNKINQKIEITIDRYVAFRHTFSQYCVDPRDCAINTLIESILSCDAAVHEESYEIRFDGVPVDECYAKSVTRRLAKIKSAVSNGAHTVKGLTTYLDAVNMSMIQNTQKLEGWSQQLDLVTADLLLSSRVLSSTECTKPAMATIANQMSEDVCQLILNDKINVINSMKSHSSLAFQ
B4: recombinant PAXT-1 (natural protein, C. elegans, UniProt Q21738 1-335, looked up)
chain: B3 chain

Columns and labels:
[1] = target: 5'-3' exoribonuclease-2 (XRN-2) (C. elegans (endogenous in worm lysate)) (UniProt Q9U299); assay: SDS-PAGE of the RNA-affinity purified complex
recombinant XRN-2 = target: T1, recombinant XRN-2 (C. elegans, UniProt Q9U299 1-975)
T1 sequence (looked up): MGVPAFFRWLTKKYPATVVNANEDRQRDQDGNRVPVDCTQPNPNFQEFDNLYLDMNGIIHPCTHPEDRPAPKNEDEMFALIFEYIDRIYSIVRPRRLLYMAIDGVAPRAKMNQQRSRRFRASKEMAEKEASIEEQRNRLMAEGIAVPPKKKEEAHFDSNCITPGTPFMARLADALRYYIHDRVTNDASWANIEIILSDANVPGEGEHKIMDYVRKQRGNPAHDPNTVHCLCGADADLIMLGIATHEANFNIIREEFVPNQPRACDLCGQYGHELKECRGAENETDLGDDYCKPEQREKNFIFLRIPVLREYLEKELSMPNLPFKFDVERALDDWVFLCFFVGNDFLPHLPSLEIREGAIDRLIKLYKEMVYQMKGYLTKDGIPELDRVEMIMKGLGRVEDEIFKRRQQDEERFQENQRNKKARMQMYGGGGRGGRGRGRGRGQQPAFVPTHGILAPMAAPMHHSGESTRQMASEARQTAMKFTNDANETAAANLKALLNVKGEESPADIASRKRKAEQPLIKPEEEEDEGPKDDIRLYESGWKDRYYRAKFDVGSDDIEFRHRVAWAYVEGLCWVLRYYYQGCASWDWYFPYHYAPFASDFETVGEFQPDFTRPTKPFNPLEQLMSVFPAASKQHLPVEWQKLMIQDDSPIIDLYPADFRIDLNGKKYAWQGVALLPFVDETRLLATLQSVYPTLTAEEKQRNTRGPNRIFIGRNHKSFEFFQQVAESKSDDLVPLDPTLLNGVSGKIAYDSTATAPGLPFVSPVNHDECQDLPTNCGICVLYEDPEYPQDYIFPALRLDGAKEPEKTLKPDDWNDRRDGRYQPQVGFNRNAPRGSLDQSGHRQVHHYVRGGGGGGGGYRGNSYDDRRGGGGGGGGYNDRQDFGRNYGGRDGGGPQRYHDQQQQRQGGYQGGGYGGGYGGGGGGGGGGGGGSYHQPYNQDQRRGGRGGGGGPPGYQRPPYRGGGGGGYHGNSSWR

[2] = target: T2, 5'-3' exoribonuclease-2 (XRN-2) (C. elegans (endogenous in worm lysate), UniProt Q9U299 1-975); assay: SDS-PAGE of the RNA-affinity purified complex
T2 sequence (looked up): T1 sequence (looked up)

Row | Molecule | stoichiometry N [1] | stoichiometry N (recombinant XRN-2) | other results
1 | miRNasome-1.4 (B0024.11) (natural protein) | 1 |  | 
2 | NOL-58 (natural protein) | 1 |  | 
3 | B1 |  | 1 | 
4 | B2 |  | 1 | 
5 | B3 |  |  | stoichiometry N [2]: 1
6 | B4 |  | 1 | 
